Results reported in US20260049138A1 (Chugai, published 2026).

B1: CE115HA000 K64Q one-arm antibody (antibody, human IgG1, kappa, L234A L235A, N297A, name in Kabat numbering)
heavy: QVQLVESGGGVVQPGRSLRLSCAASGFTFSNAWMHWVRQAPGKGLEWVAQIKAKSNNYATYYAESVQGRFTISRDDSKNSLYLQMNSLKTEDTAVYYCRYVHYGAYYGVDAWGQGTTVTVSSASTKGPSVFPLAPSSKSTSGGTAALGCLVKDYFPEPVTVSWNSGALTSGVHTFPAVLQSSGLYSLSSVVTVPSSSLGTQTYICNVNHKPSNTKVDKKVEPKSCDKTHTCPPCPAPEAAGGPSVFLFPPKPKDTLMISRTPEVTCVVVDVSHEDPEVKFNWYVDGVEVHNAKTKPREEQYASTYRVVSVLTVLHQDWLNGKEYKCKVSNKALPAPIEKTISKAKGQPREPQVYTLPPSRCELTKNQVSLSCAVKGFYPSDIAVEWESNGQPENNYKTTPPVLDSDGSFFLVSKLTVDKSRWQQGNVFSCSVMHEALHNHYTQKSLSLSPDYKDDDDK
chain: EPKSSDKTHTCPPCPAPELLGGPSVFLFPPKPKDTLMISRTPEVTCVVVDVSHEDPEVKFNWYVDGVEVHNAKTKPREEQYNSTYRVVSVLTVLHQDWLNGKEYKCKVSNKALPAPIEKTISKAKGQPREPQVCTLPPSRDELTKNQVSLWCLVKGFYPSDIAVEWESNGQPENNYKTTPPVLDSDGSFFLYSKLTVDKSRWQQGNVFSCSVMHEALHNRYTQKSLSLSP
light: DIVMTQSPLSLPVTPGEPASISCRSSQSLVHSNRNTYLHWYQQKPGQAPRLLIYKVSNRFSGVPDRFSGSGSGTDFTLKISRVEAEDVGVYYCGQGTQVPYTFGQGTKLEIKRTVAAPSVFIFPPSDEQLKSGTASVVCLLNNFYPREAKVQWKVDNALQSGNSQESVTEQDSKDSTYSLSSTLTLSKADYEKHKVYACEVTHQGLSSPVTKSFNRGEC
B2: CE115HA000 K75T one-arm antibody (antibody, human IgG1, kappa, L234A L235A, N297A, name in Kabat numbering)
heavy: QVQLVESGGGVVQPGRSLRLSCAASGFTFSNAWMHWVRQAPGKGLEWVAQIKAKSNNYATYYAESVKGRFTISRDDSTNSLYLQMNSLKTEDTAVYYCRYVHYGAYYGVDAWGQGTTVTVSSASTKGPSVFPLAPSSKSTSGGTAALGCLVKDYFPEPVTVSWNSGALTSGVHTFPAVLQSSGLYSLSSVVTVPSSSLGTQTYICNVNHKPSNTKVDKKVEPKSCDKTHTCPPCPAPEAAGGPSVFLFPPKPKDTLMISRTPEVTCVVVDVSHEDPEVKFNWYVDGVEVHNAKTKPREEQYASTYRVVSVLTVLHQDWLNGKEYKCKVSNKALPAPIEKTISKAKGQPREPQVYTLPPSRCELTKNQVSLSCAVKGFYPSDIAVEWESNGQPENNYKTTPPVLDSDGSFFLVSKLTVDKSRWQQGNVFSCSVMHEALHNHYTQKSLSLSPDYKDDDDK
chain: EPKSSDKTHTCPPCPAPELLGGPSVFLFPPKPKDTLMISRTPEVTCVVVDVSHEDPEVKFNWYVDGVEVHNAKTKPREEQYNSTYRVVSVLTVLHQDWLNGKEYKCKVSNKALPAPIEKTISKAKGQPREPQVCTLPPSRDELTKNQVSLWCLVKGFYPSDIAVEWESNGQPENNYKTTPPVLDSDGSFFLYSKLTVDKSRWQQGNVFSCSVMHEALHNRYTQKSLSLSP
light: DIVMTQSPLSLPVTPGEPASISCRSSQSLVHSNRNTYLHWYQQKPGQAPRLLIYKVSNRFSGVPDRFSGSGSGTDFTLKISRVEAEDVGVYYCGQGTQVPYTFGQGTKLEIKRTVAAPSVFIFPPSDEQLKSGTASVVCLLNNFYPREAKVQWKVDNALQSGNSQESVTEQDSKDSTYSLSSTLTLSKADYEKHKVYACEVTHQGLSSPVTKSFNRGEC
B3: CE115HA000 L78I one-arm antibody (antibody, human IgG1, kappa, L234A L235A, N297A, name in Kabat numbering)
heavy: QVQLVESGGGVVQPGRSLRLSCAASGFTFSNAWMHWVRQAPGKGLEWVAQIKAKSNNYATYYAESVKGRFTISRDDSKNSIYLQMNSLKTEDTAVYYCRYVHYGAYYGVDAWGQGTTVTVSSASTKGPSVFPLAPSSKSTSGGTAALGCLVKDYFPEPVTVSWNSGALTSGVHTFPAVLQSSGLYSLSSVVTVPSSSLGTQTYICNVNHKPSNTKVDKKVEPKSCDKTHTCPPCPAPEAAGGPSVFLFPPKPKDTLMISRTPEVTCVVVDVSHEDPEVKFNWYVDGVEVHNAKTKPREEQYASTYRVVSVLTVLHQDWLNGKEYKCKVSNKALPAPIEKTISKAKGQPREPQVYTLPPSRCELTKNQVSLSCAVKGFYPSDIAVEWESNGQPENNYKTTPPVLDSDGSFFLVSKLTVDKSRWQQGNVFSCSVMHEALHNHYTQKSLSLSPDYKDDDDK
chain: EPKSSDKTHTCPPCPAPELLGGPSVFLFPPKPKDTLMISRTPEVTCVVVDVSHEDPEVKFNWYVDGVEVHNAKTKPREEQYNSTYRVVSVLTVLHQDWLNGKEYKCKVSNKALPAPIEKTISKAKGQPREPQVCTLPPSRDELTKNQVSLWCLVKGFYPSDIAVEWESNGQPENNYKTTPPVLDSDGSFFLYSKLTVDKSRWQQGNVFSCSVMHEALHNRYTQKSLSLSP
light: DIVMTQSPLSLPVTPGEPASISCRSSQSLVHSNRNTYLHWYQQKPGQAPRLLIYKVSNRFSGVPDRFSGSGSGTDFTLKISRVEAEDVGVYYCGQGTQVPYTFGQGTKLEIKRTVAAPSVFIFPPSDEQLKSGTASVVCLLNNFYPREAKVQWKVDNALQSGNSQESVTEQDSKDSTYSLSSTLTLSKADYEKHKVYACEVTHQGLSSPVTKSFNRGEC
B4: CE115HA000 N31A one-arm antibody (antibody, human IgG1, kappa, L234A L235A, N297A, name in Kabat numbering)
heavy: QVQLVESGGGVVQPGRSLRLSCAASGFTFSAAWMHWVRQAPGKGLEWVAQIKAKSNNYATYYAESVKGRFTISRDDSKNSLYLQMNSLKTEDTAVYYCRYVHYGAYYGVDAWGQGTTVTVSSASTKGPSVFPLAPSSKSTSGGTAALGCLVKDYFPEPVTVSWNSGALTSGVHTFPAVLQSSGLYSLSSVVTVPSSSLGTQTYICNVNHKPSNTKVDKKVEPKSCDKTHTCPPCPAPEAAGGPSVFLFPPKPKDTLMISRTPEVTCVVVDVSHEDPEVKFNWYVDGVEVHNAKTKPREEQYASTYRVVSVLTVLHQDWLNGKEYKCKVSNKALPAPIEKTISKAKGQPREPQVYTLPPSRCELTKNQVSLSCAVKGFYPSDIAVEWESNGQPENNYKTTPPVLDSDGSFFLVSKLTVDKSRWQQGNVFSCSVMHEALHNHYTQKSLSLSPDYKDDDDK
chain: EPKSSDKTHTCPPCPAPELLGGPSVFLFPPKPKDTLMISRTPEVTCVVVDVSHEDPEVKFNWYVDGVEVHNAKTKPREEQYNSTYRVVSVLTVLHQDWLNGKEYKCKVSNKALPAPIEKTISKAKGQPREPQVCTLPPSRDELTKNQVSLWCLVKGFYPSDIAVEWESNGQPENNYKTTPPVLDSDGSFFLYSKLTVDKSRWQQGNVFSCSVMHEALHNRYTQKSLSLSP
light: DIVMTQSPLSLPVTPGEPASISCRSSQSLVHSNRNTYLHWYQQKPGQAPRLLIYKVSNRFSGVPDRFSGSGSGTDFTLKISRVEAEDVGVYYCGQGTQVPYTFGQGTKLEIKRTVAAPSVFIFPPSDEQLKSGTASVVCLLNNFYPREAKVQWKVDNALQSGNSQESVTEQDSKDSTYSLSSTLTLSKADYEKHKVYACEVTHQGLSSPVTKSFNRGEC
notes: One-arm antibody: altered VH-pE22Hh, Kn010G3, GLS3000-kappa; The same holds for m64 to m321
B5: CE115HA000 K75R one-arm antibody (antibody, human IgG1, kappa, L234A L235A, N297A, name in Kabat numbering)
heavy: QVQLVESGGGVVQPGRSLRLSCAASGFTFSNAWMHWVRQAPGKGLEWVAQIKAKSNNYATYYAESVKGRFTISRDDSRNSLYLQMNSLKTEDTAVYYCRYVHYGAYYGVDAWGQGTTVTVSSASTKGPSVFPLAPSSKSTSGGTAALGCLVKDYFPEPVTVSWNSGALTSGVHTFPAVLQSSGLYSLSSVVTVPSSSLGTQTYICNVNHKPSNTKVDKKVEPKSCDKTHTCPPCPAPEAAGGPSVFLFPPKPKDTLMISRTPEVTCVVVDVSHEDPEVKFNWYVDGVEVHNAKTKPREEQYASTYRVVSVLTVLHQDWLNGKEYKCKVSNKALPAPIEKTISKAKGQPREPQVYTLPPSRCELTKNQVSLSCAVKGFYPSDIAVEWESNGQPENNYKTTPPVLDSDGSFFLVSKLTVDKSRWQQGNVFSCSVMHEALHNHYTQKSLSLSPDYKDDDDK
chain: EPKSSDKTHTCPPCPAPELLGGPSVFLFPPKPKDTLMISRTPEVTCVVVDVSHEDPEVKFNWYVDGVEVHNAKTKPREEQYNSTYRVVSVLTVLHQDWLNGKEYKCKVSNKALPAPIEKTISKAKGQPREPQVCTLPPSRDELTKNQVSLWCLVKGFYPSDIAVEWESNGQPENNYKTTPPVLDSDGSFFLYSKLTVDKSRWQQGNVFSCSVMHEALHNRYTQKSLSLSP
light: DIVMTQSPLSLPVTPGEPASISCRSSQSLVHSNRNTYLHWYQQKPGQAPRLLIYKVSNRFSGVPDRFSGSGSGTDFTLKISRVEAEDVGVYYCGQGTQVPYTFGQGTKLEIKRTVAAPSVFIFPPSDEQLKSGTASVVCLLNNFYPREAKVQWKVDNALQSGNSQESVTEQDSKDSTYSLSSTLTLSKADYEKHKVYACEVTHQGLSSPVTKSFNRGEC
B6: CE115HA000 K64S one-arm antibody (antibody, human IgG1, kappa, L234A L235A, N297A, name in Kabat numbering)
heavy: QVQLVESGGGVVQPGRSLRLSCAASGFTFSNAWMHWVRQAPGKGLEWVAQIKAKSNNYATYYAESVSGRFTISRDDSKNSLYLQMNSLKTEDTAVYYCRYVHYGAYYGVDAWGQGTTVTVSSASTKGPSVFPLAPSSKSTSGGTAALGCLVKDYFPEPVTVSWNSGALTSGVHTFPAVLQSSGLYSLSSVVTVPSSSLGTQTYICNVNHKPSNTKVDKKVEPKSCDKTHTCPPCPAPEAAGGPSVFLFPPKPKDTLMISRTPEVTCVVVDVSHEDPEVKFNWYVDGVEVHNAKTKPREEQYASTYRVVSVLTVLHQDWLNGKEYKCKVSNKALPAPIEKTISKAKGQPREPQVYTLPPSRCELTKNQVSLSCAVKGFYPSDIAVEWESNGQPENNYKTTPPVLDSDGSFFLVSKLTVDKSRWQQGNVFSCSVMHEALHNHYTQKSLSLSPDYKDDDDK
chain: EPKSSDKTHTCPPCPAPELLGGPSVFLFPPKPKDTLMISRTPEVTCVVVDVSHEDPEVKFNWYVDGVEVHNAKTKPREEQYNSTYRVVSVLTVLHQDWLNGKEYKCKVSNKALPAPIEKTISKAKGQPREPQVCTLPPSRDELTKNQVSLWCLVKGFYPSDIAVEWESNGQPENNYKTTPPVLDSDGSFFLYSKLTVDKSRWQQGNVFSCSVMHEALHNRYTQKSLSLSP
light: DIVMTQSPLSLPVTPGEPASISCRSSQSLVHSNRNTYLHWYQQKPGQAPRLLIYKVSNRFSGVPDRFSGSGSGTDFTLKISRVEAEDVGVYYCGQGTQVPYTFGQGTKLEIKRTVAAPSVFIFPPSDEQLKSGTASVVCLLNNFYPREAKVQWKVDNALQSGNSQESVTEQDSKDSTYSLSSTLTLSKADYEKHKVYACEVTHQGLSSPVTKSFNRGEC

Target: T1, CD3ε homodimer protein (human, UniProt P07766 23-126, limits assumed, sulfo-tag or biotin label in the ECL assays; amine-coupled to the chip in SPR)
T1 construct: also called human CD3ε homodimer protein; CD3 (CD3ε)
Assay: SPR Biacore T200; CD3ε homodimer on CM4 chip;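 note: Single-residue variant antibodies injected as analyte over CD3ε homodimer immobilized by amine coupling, run at 25 °C in HBS-EP+ buffer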

T1 sequence (P07766 23-126 limits assumed): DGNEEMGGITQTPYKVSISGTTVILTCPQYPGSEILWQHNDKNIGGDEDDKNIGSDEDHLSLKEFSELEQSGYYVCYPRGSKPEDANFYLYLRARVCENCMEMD

Row | Binder | ratio of amounts bound Z=Y/X (altered form / CE115HA000)
1 | B1 | 0.89
2 | B2 | 0.84
3 | B3 | 1.34
4 | B4 | 0.5
5 | B5 | 1.01
6 | B6 | 0.84
